From patent publication US20250250357A1 (NANJING ZAIMING PHARMACEUTICAL, published 2025)

T1: human MSLN-R1-his protein (human, UniProt Q13421 296-390)
T1 construct: Self-made in HEK293E cells; also called human MSLN-R1 protein; hMSLN-R1-his; not shown: His tag
T1 chain: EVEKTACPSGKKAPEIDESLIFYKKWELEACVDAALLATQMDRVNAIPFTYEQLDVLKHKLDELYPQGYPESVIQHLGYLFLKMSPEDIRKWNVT


Key:
[1] = molecular target: T1, human MSLN-R1-his protein; test: ELISA on coated antigen, antibody 0.001 nM
Method: (§1) The plate was sealed with a plastic film and incubated at 4° C. overnight. The next day, the plate was washed twice with PBST, and a blocking buffer [PBS+2% (w/w) BSA] was added for blocking at room temperature for 2 h. The blocking buffer was discarded, and a chimeric antibody or negative control antibody serially diluted from 100 nM was added at 50 μL/well. After incubation at 37° C. for 2 h, the plate was washed 3 times with PBST. […] After incubation at 37° C. for 2 h, the plate was washed 5 times with PBST. A TMB substrate was added at 50 μL/well for incubation at room temperature for 5-10 min, and then a stop solution (1.0 N HCl) was added at 50 μL/well.

[2] = molecular target: T1, human MSLN-R1-his protein; test: ELISA on coated antigen, antibody 10 nM
Method: as §1

[3] = molecular target: T1, human MSLN-R1-his protein; test: ELISA on coated antigen, antibody 0.1 nM
Method: as §1

[4] = molecular target: T2, human MSLN-FL-his protein (human, UniProt Q13421 296-580); test: ELISA on coated antigen, antibody 1 nM
T2 construct: Self-made in HEK293E cells; also called human MSLN full-length protein; hMSLN-FL-his; not shown: His tag

[5] = molecular target: T2, human MSLN-FL-his protein; test: ELISA on coated antigen, antibody 0.001 nM
Method: as §1

[6] = molecular target: T2, human MSLN-FL-his protein; test: ELISA on coated antigen, antibody 0.0001 nM
Method: as §1

[7] = molecular target: T2, human MSLN-FL-his protein; test: ELISA on coated antigen, antibody 0.01 nM
Method: as §1

[8] = molecular target: T1, human MSLN-R1-his protein; test: ELISA on coated antigen, antibody 0.0001 nM
Method: as §1

[9] = molecular target: T1, human MSLN-R1-his protein; test: ELISA on coated antigen, antibody 0.01 nM
Method: as §1

[10] = molecular target: T2, human MSLN-FL-his protein; test: ELISA on coated antigen, no antibody (column none)
Method: as §1

[11] = molecular target: T2, human MSLN-FL-his protein; test: ELISA on coated antigen, antibody 10 nM
Method: as §1

[12] = molecular target: T1, human MSLN-R1-his protein; test: ELISA on coated antigen, no antibody (column none)
Method: as §1

[13] = molecular target: T1, human MSLN-R1-his protein; test: ELISA on coated antigen, antibody 100 nM
Method: as §1

[14] = molecular target: T2, human MSLN-FL-his protein; test: ELISA on coated antigen, antibody 100 nM
Method: as §1

[15] = molecular target: T2, human MSLN-FL-his protein; test: ELISA on coated antigen, antibody 0.1 nM
Method: as §1

[16] = molecular target: T1, human MSLN-R1-his protein; test: ELISA on coated antigen, antibody 1 nM
Method: as §1

[17] = molecular target: T3, human MSLN-R3-3 polypeptide (human); test: ELISA on coated antigen, antibody 0.01 nM
T3 construct: also called human MSLN-R3-3 protein; hMSLN-R3-3
Method: as §1

[18] = molecular target: T3, human MSLN-R3-3 polypeptide; test: ELISA on coated antigen, antibody 10 nM
Method: as §1

[19] = molecular target: T3, human MSLN-R3-3 polypeptide; test: ELISA on coated antigen, no antibody (column none)
Method: as §1

[20] = molecular target: T4, human MSLN-R2-his protein (human, UniProt Q13421 391-486); test: ELISA on coated antigen, antibody 0.001 nM
T4 construct: Self-made in HEK293E cells; also called human MSLN-R2 protein; hMSLN-R2-his; not shown: His tag
T4 sequence (Q13421 other isoform, or with tags, fused parts or gaps): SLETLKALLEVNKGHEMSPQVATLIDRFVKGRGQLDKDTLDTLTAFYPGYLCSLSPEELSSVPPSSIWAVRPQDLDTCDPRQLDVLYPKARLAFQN

[21] = molecular target: T5, human MSLN-R3-his protein (human, UniProt Q13421 487-598); test: ELISA on coated antigen, no antibody (column none)
T5 construct: Self-made in HEK293E cells; also called human MSLN-R3 protein; hMSLN-R3-his; not shown: His tag
T5 sequence (Q13421 495-606): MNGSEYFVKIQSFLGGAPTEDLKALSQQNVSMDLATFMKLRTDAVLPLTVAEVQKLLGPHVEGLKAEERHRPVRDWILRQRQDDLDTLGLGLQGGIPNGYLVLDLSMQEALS

[22] = molecular target: T3, human MSLN-R3-3 polypeptide; test: ELISA on coated antigen, antibody 0.001 nM
Method: as §1

[23] = molecular target: T4, human MSLN-R2-his protein; test: ELISA on coated antigen, antibody 10 nM
Method: as §1

[24] = molecular target: T4, human MSLN-R2-his protein; test: ELISA on coated antigen, no antibody (column none)
Method: as §1

[25] = molecular target: T5, human MSLN-R3-his protein; test: ELISA on coated antigen, antibody 10 nM
Method: as §1

[26] = molecular target: T4, human MSLN-R2-his protein; test: ELISA on coated antigen, antibody 0.0001 nM
Method: as §1

[27] = molecular target: T4, human MSLN-R2-his protein; test: ELISA on coated antigen, antibody 100 nM
Method: as §1

[28] = molecular target: T5, human MSLN-R3-his protein; test: ELISA on coated antigen, antibody 0.0001 nM
Method: as §1

[29] = molecular target: T5, human MSLN-R3-his protein; test: ELISA on coated antigen, antibody 0.001 nM
Method: as §1

[30] = molecular target: T4, human MSLN-R2-his protein; test: ELISA on coated antigen, antibody 0.1 nM
Method: as §1

[31] = molecular target: T5, human MSLN-R3-his protein; test: ELISA on coated antigen, antibody 100 nM
Method: as §1

[32] = molecular target: T3, human MSLN-R3-3 polypeptide; test: ELISA on coated antigen, antibody 100 nM
Method: as §1

[33] = molecular target: T4, human MSLN-R2-his protein; test: ELISA on coated antigen, antibody 1 nM
Method: as §1

[34] = molecular target: T3, human MSLN-R3-3 polypeptide; test: ELISA on coated antigen, antibody 0.1 nM
Method: as §1

[35] = molecular target: T5, human MSLN-R3-his protein; test: ELISA on coated antigen, antibody 1 nM
Method: as §1

[36] = molecular target: T3, human MSLN-R3-3 polypeptide; test: ELISA on coated antigen, antibody 0.0001 nM
Method: as §1

[37] = molecular target: T4, human MSLN-R2-his protein; test: ELISA on coated antigen, antibody 0.01 nM
Method: as §1

[38] = molecular target: T5, human MSLN-R3-his protein; test: ELISA on coated antigen, antibody 0.1 nM
Method: as §1

[39] = molecular target: T5, human MSLN-R3-his protein; test: ELISA on coated antigen, antibody 0.01 nM
Method: as §1

[40] = molecular target: T3, human MSLN-R3-3 polypeptide; test: ELISA on coated antigen, antibody 1 nM
Method: as §1

Binder	OD450 [1] [OD450]	OD450 [2] [OD450]	OD450 [3] [OD450]	OD450 [4] [OD450]	OD450 [5] [OD450]	OD450 [6] [OD450]	OD450 [7] [OD450]	OD450 [8] [OD450]	OD450 [9] [OD450]	OD450 [10] [OD450]	OD450 [11] [OD450]	OD450 [12] [OD450]	OD450 [13] [OD450]	OD450 [14] [OD450]	OD450 [15] [OD450]	OD450 [16] [OD450]	OD450 [17] [OD450]	OD450 [18] [OD450]	OD450 [19] [OD450]	OD450 [20] [OD450]	further results
S009-F3.7.3 (antibody, human IgG1, kappa, V domains shown, Human-murine chimeric antibody: murine VH/VL on human IgG1 heavy and kappa light constant regions) VH: EVNFEESGGGLVQPGGSMKLSCVASGFTFSNYWMNWVRQSPEKGLEWVAQIRLKSDNYATHYAESVKGRFTISRDDFKSSVYLQMNNLRAEDTGIYYCTVGTGGYWGQGTTLTVSS VL: DIVLTQSPASLAMSLGKRATISCRASESVSIVGTNVIHWFQQKPGQPPKLLIYHASNLETGVPARFSGSGSGTDFTLTIDPVEEDDVAIYHCLQSRKIPWTFGGGTKLEIKR	0.07	0.08	0.07	0.07	0.06	0.06	0.07	0.07	0.06	0.08	0.08	0.08	0.12	0.13	0.07	0.07					
S009-F3.16.1 (antibody, human IgG1, kappa, V domains shown, Human-murine chimeric antibody: murine VH/VL on human IgG1 heavy and kappa light constant regions) VH: EVKFEESGGGLVQPGGSMKLSCVASGFTFSNYWMNWVRQSPEKGLEWVAQIRLKSDNYATHYAESVKGRFSISRDDSKSSVYLQMNNLRAEDTGIYYCSVGTGGYWGQGTTLTVSS VL: DIVLTQSPASLALSPGKRATISCRASESVSIIGTDVIHWFQQKPGQPPKLLIYHASNLETGVPARFSGSGSRTDFTLTIDPVEEDDVAIYYCLQSRKIPWTFGGGTKLEIKR	0.07	0.08	0.07	0.08	0.06	0.06	0.07	0.07	0.06	0.08	0.11	0.08	0.1	0.12	0.08	0.06					
S009-F3.23.1 (antibody, human IgG1, kappa, V domains shown, Human-murine chimeric antibody: murine VH/VL on human IgG1 heavy and kappa light constant regions) VH: QVQLQQSGADLVRPGASVTLSCKASGYTFTDYEMHWVKQTPVHGLEWIGAIDPETGDTVYNQNFKGKAILTADKSSSTAYMELRSLTSEDSAVYYCTRYGYDWGWGQGTTLTVSS VL: not shown	0.06	0.06	0.06	1.98	0.15	0.07	0.7	0.07	0.06	0.07	2.11	0.07	0.08	2.39	1.76	0.06					
S009-F3.38.10 (antibody, human IgG1, kappa, V domains shown, Human-murine chimeric antibody: murine VH/VL on human IgG1 heavy and kappa light constant regions) VH: EVQLQQSGPVLVKPGASVKMSCEASGYIFTDYYMNWVKKSHGKSLEWIGVINPKNGVISHNQKFKGKATLTVDKSSNTAYMELSSLTSEDSAVYYCANYGSRFYAMDYWGQGTSVTVSS VL: DVVMTQTPLSLPVSLGDQASISCRSSQSLIHSDGNTYLQWYLQKSGQSPKLLIYKVSNRFSGVPDRFSGSGSGTDFTLKISRVETEDLGVYFCSQTTHVPFTFGSGTKLEIKR	0.07	0.07	0.06	0.07	0.06	0.06	0.07	0.07	0.06	0.07	0.06	0.07	0.11	0.1	0.07	0.06					
S009-F2.58.8 (antibody, human IgG1, kappa, V domains shown, Human-murine chimeric antibody: murine VH/VL on human IgG1 heavy and kappa light constant regions) VH: QVQLLQSGAELAKPGASVKLSCKASGYTFTSYWVHWVKQRPGQGLEWIGYINPNSGYTKYNQKFKDKATLTADKSSSTAYMQLSSLTYEDSAVYYCADHYYGSSRDYFDYWGQGTTLTVSS VL: QIVLTQSPAIMSASPGEKVTMTCSASSSVSYMYWYQQRPGSSPRLLIYDTSNLASGVPVRFSGSGSGTSYSLTISRMEAEDAATYYCQQWNSYPYTFGGGTKLEIKR																	0.06	0.06	0.06	0.06	OD450 [21]: 0.05 OD450; OD450 [22]: 0.06 OD450; OD450 [23]: 2.43 OD450; OD450 [24]: 0.06 OD450; OD450 [25]: 0.05 OD450; OD450 [26]: 0.05 OD450; OD450 [27]: 2.63 OD450; OD450 [28]: 0.05 OD450; OD450 [29]: 0.05 OD450; OD450 [30]: 0.63 OD450; OD450 [31]: 0.07 OD450; OD450 [32]: 0.07 OD450; OD450 [33]: 2.04 OD450; OD450 [34]: 0.06 OD450; OD450 [35]: 0.05 OD450; OD450 [36]: 0.05 OD450; OD450 [37]: 0.12 OD450; OD450 [38]: 0.05 OD450; OD450 [39]: 0.05 OD450; OD450 [40]: 0.06 OD450
S009-F2-56.12 (antibody, human IgG1, kappa, V domains shown, Human-murine chimeric antibody: murine VH/VL on human IgG1 heavy and kappa light constant regions) VH: DVQLQESGPGMVKPSQSLSLTCTVTGYSITSGYDWHWIRHFPGNKLEWMGYISYSGSTNYNPSLKSRISITHDTSKNHFFLKLKSVTTEDTATYYCARGTGPDYWGQGTTLTVSS VL: DIVMTQSQKFMSTSVGDRVSITCKASQNVRTAVAWYQQKPGQSPKALIHLPSNRHTGVPDRFTGSGSGTDFTLTISNVQSEDLADYFCLQHWNYPLTFGGGTKLEIKR																	0.05	0.07	0.07	0.06	OD450 [21]: 0.06 OD450; OD450 [22]: 0.06 OD450; OD450 [23]: 0.07 OD450; OD450 [24]: 0.07 OD450; OD450 [25]: 0.07 OD450; OD450 [26]: 0.06 OD450; OD450 [27]: 0.17 OD450; OD450 [28]: 0.05 OD450; OD450 [29]: 0.05 OD450; OD450 [30]: 0.06 OD450; OD450 [31]: 0.13 OD450; OD450 [32]: 0.14 OD450; OD450 [33]: 0.06 OD450; OD450 [34]: 0.06 OD450; OD450 [35]: 0.06 OD450; OD450 [36]: 0.06 OD450; OD450 [37]: 0.06 OD450; OD450 [38]: 0.05 OD450; OD450 [39]: 0.05 OD450; OD450 [40]: 0.06 OD450
